In ChEMBL document CHEMBL2073894, “Localization of organic anion transporting polypeptide 4 (Oatp4) in rat liver and comparison of its substrate specificity with Oatp1, Oatp2 and Oatp3” (Pflugers Arch, 2001):

T1: Solute carrier organic anion transporter family member 1A5 (Oatp1a5) (Rattus norvegicus, UniProt O88397)
T1 sequence (O88397 whole entry): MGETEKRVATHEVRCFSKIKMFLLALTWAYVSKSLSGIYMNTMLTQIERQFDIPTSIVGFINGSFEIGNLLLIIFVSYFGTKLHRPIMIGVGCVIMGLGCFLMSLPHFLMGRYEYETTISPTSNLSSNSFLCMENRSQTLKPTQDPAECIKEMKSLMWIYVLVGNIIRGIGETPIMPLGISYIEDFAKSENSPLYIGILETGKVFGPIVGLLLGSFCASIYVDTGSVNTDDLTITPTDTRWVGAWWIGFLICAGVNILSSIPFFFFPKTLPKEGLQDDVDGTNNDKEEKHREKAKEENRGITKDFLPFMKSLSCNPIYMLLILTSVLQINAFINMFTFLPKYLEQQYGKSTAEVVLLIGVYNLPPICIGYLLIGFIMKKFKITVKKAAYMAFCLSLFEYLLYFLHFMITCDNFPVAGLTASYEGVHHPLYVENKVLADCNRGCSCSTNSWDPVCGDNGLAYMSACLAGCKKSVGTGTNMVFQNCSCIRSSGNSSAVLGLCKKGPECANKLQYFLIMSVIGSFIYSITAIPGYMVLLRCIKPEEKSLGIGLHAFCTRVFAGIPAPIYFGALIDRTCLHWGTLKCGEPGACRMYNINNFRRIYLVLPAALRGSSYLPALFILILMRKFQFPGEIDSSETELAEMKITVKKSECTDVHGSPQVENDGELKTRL

T2: Solute carrier organic anion transporter family member 1B2 (Rattus norvegicus, UniProt Q9QZX8)
T2 sequence (Q9QZX8 whole entry): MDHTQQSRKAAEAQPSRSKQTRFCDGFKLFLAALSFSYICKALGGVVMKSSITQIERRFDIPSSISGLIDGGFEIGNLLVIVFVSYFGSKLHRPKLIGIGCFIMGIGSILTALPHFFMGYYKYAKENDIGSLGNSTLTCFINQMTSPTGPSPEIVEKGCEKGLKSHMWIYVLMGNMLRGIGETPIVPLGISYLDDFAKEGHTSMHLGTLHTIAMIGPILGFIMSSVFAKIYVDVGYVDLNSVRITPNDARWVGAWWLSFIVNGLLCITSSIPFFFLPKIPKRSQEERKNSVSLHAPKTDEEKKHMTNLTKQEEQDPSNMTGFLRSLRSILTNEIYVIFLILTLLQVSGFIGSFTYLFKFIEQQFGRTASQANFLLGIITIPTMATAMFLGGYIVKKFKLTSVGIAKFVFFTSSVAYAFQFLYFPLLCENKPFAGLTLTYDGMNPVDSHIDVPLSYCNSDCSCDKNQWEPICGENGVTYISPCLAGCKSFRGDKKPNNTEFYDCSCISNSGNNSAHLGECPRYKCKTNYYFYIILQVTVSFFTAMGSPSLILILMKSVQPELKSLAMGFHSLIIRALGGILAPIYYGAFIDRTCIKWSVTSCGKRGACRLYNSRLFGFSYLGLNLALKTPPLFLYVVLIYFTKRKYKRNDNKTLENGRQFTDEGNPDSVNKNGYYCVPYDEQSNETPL

T3: Solute carrier organic anion transporter family member 1A5 (Rattus norvegicus, UniProt O88397)
T3 sequence (O88397 whole entry): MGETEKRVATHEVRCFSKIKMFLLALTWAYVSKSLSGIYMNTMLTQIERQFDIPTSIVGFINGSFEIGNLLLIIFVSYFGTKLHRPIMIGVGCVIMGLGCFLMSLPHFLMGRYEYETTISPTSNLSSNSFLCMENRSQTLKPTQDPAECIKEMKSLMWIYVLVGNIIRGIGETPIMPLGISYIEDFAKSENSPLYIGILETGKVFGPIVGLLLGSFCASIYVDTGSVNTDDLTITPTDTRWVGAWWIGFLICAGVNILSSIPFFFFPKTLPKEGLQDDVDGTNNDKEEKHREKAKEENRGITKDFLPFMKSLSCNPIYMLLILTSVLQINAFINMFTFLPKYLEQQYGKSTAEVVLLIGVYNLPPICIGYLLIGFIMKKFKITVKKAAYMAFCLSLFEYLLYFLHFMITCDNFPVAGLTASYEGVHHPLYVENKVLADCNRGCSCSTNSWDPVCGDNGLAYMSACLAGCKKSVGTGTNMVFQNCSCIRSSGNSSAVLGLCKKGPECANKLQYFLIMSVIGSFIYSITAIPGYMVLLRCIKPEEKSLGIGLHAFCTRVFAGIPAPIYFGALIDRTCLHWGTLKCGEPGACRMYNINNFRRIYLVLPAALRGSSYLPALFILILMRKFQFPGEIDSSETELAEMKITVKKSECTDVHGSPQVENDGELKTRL

T4: Solute carrier organic anion transporter family member 1A4 (Rattus norvegicus, UniProt O35913)
T4 sequence (O35913 whole entry): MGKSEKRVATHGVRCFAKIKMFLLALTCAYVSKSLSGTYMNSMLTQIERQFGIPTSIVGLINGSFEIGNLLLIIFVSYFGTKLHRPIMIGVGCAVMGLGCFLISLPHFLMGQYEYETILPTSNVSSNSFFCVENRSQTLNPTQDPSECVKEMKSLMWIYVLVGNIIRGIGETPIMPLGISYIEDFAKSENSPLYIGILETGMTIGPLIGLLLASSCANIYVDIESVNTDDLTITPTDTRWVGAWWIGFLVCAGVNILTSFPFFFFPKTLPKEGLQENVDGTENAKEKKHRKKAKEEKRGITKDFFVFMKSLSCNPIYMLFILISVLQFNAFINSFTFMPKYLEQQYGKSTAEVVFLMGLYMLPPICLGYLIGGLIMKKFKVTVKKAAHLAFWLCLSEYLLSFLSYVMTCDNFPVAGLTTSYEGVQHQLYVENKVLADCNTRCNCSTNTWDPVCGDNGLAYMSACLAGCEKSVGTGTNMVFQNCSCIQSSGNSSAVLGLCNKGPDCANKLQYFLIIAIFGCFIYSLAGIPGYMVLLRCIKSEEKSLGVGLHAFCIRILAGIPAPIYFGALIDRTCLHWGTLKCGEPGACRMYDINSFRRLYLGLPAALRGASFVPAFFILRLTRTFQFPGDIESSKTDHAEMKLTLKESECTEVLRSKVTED

T5: Solute carrier organic anion transporter family member 1A1 (Rattus norvegicus, UniProt P46720)
T5 sequence (P46720 whole entry): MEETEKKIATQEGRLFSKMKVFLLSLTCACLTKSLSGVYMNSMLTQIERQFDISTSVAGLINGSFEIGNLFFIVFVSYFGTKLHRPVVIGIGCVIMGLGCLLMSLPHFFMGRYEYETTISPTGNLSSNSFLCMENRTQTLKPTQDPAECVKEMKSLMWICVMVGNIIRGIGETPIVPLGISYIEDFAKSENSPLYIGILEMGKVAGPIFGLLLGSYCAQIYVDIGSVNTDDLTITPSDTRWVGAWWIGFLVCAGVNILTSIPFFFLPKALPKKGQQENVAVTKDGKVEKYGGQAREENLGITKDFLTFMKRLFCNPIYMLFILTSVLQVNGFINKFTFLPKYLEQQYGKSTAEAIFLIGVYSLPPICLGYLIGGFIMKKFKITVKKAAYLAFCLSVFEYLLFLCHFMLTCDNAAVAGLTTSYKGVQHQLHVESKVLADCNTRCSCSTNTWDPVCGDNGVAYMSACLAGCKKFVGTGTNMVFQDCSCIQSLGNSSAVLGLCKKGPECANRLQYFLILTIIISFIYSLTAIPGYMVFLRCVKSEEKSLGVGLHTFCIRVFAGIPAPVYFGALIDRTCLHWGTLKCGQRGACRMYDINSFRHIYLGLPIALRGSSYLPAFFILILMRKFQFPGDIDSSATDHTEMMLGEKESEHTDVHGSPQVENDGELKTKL

B1: Solute carrier organic anion transporter family member 1A5 (Rattus norvegicus) (protein)
chain: MGETEKRVATHEVRCFSKIKMFLLALTWAYVSKSLSGIYMNTMLTQIERQFDIPTSIVGFINGSFEIGNLLLIIFVSYFGTKLHRPIMIGVGCVIMGLGCFLMSLPHFLMGRYEYETTISPTSNLSSNSFLCMENRSQTLKPTQDPAECIKEMKSLMWIYVLVGNIIRGIGETPIMPLGISYIEDFAKSENSPLYIGILETGKVFGPIVGLLLGSFCASIYVDTGSVNTDDLTITPTDTRWVGAWWIGFLICAGVNILSSIPFFFFPKTLPKEGLQDDVDGTNNDKEEKHREKAKEENRGITKDFLPFMKSLSCNPIYMLLILTSVLQINAFINMFTFLPKYLEQQYGKSTAEVVLLIGVYNLPPICIGYLLIGFIMKKFKITVKKAAYMAFCLSLFEYLLYFLHFMITCDNFPVAGLTASYEGVHHPLYVENKVLADCNRGCSCSTNSWDPVCGDNGLAYMSACLAGCKKSVGTGTNMVFQNCSCIRSSGNSSAVLGLCKKGPECANKLQYFLIMSVIGSFIYSITAIPGYMVLLRCIKPEEKSLGIGLHAFCTRVFAGIPAPIYFGALIDRTCLHWGTLKCGEPGACRMYNINNFRRIYLVLPAALRGSSYLPALFILILMRKFQFPGEIDSSETELAEMKITVKKSECTDVHGSPQVENDGELKTRL
B2: Solute carrier organic anion transporter family member 1B2 (Rattus norvegicus) (protein)
chain: MDHTQQSRKAAEAQPSRSKQTRFCDGFKLFLAALSFSYICKALGGVVMKSSITQIERRFDIPSSISGLIDGGFEIGNLLVIVFVSYFGSKLHRPKLIGIGCFIMGIGSILTALPHFFMGYYKYAKENDIGSLGNSTLTCFINQMTSPTGPSPEIVEKGCEKGLKSHMWIYVLMGNMLRGIGETPIVPLGISYLDDFAKEGHTSMHLGTLHTIAMIGPILGFIMSSVFAKIYVDVGYVDLNSVRITPNDARWVGAWWLSFIVNGLLCITSSIPFFFLPKIPKRSQEERKNSVSLHAPKTDEEKKHMTNLTKQEEQDPSNMTGFLRSLRSILTNEIYVIFLILTLLQVSGFIGSFTYLFKFIEQQFGRTASQANFLLGIITIPTMATAMFLGGYIVKKFKLTSVGIAKFVFFTSSVAYAFQFLYFPLLCENKPFAGLTLTYDGMNPVDSHIDVPLSYCNSDCSCDKNQWEPICGENGVTYISPCLAGCKSFRGDKKPNNTEFYDCSCISNSGNNSAHLGECPRYKCKTNYYFYIILQVTVSFFTAMGSPSLILILMKSVQPELKSLAMGFHSLIIRALGGILAPIYYGAFIDRTCIKWSVTSCGKRGACRLYNSRLFGFSYLGLNLALKTPPLFLYVVLIYFTKRKYKRNDNKTLENGRQFTDEGNPDSVNKNGYYCVPYDEQSNETPL

Experiments:
[1] = target: T1, Solute carrier organic anion transporter family member 1A5 (Oatp1a5); assay: (§1) TP_TRANSPORTER: uptake in Xenopus laevis oocytes; format: functional, cell-based, Oocyte; conditions: Xenopus laevis oocytes
[2] = target: T2, Solute carrier organic anion transporter family member 1B2; assay: as §1; format: functional, cell-based; conditions: oocyte
[3] = target: T3, Solute carrier organic anion transporter family member 1A5; assay: as §1; format: functional, cell-based, Oocyte; conditions: oocyte
[4] = target: T4, Solute carrier organic anion transporter family member 1A4; assay: as §1; format: functional, cell-based; conditions: oocyte
[5] = target: T5, Solute carrier organic anion transporter family member 1A1; assay: as §1; format: functional, cell-based; conditions: oocyte
[6] = substrate: [H][C@@]12CC=C3C[C@@H](OS(=O)(=O)O)CC[C@]3(C)[C@@]1([H])CC[C@]1(C)C(=O)CC[C@@]21[H]; assay: as §1; format: functional, cell-based, Oocyte
[7] = substrate: CC(C)C[C@@H]1NC(=O)[C@@H](C(C)C)NC(=O)[C@@H]2CCCN2C(=O)[C@@H](CC(=O)O)NC(=O)[C@@H](Cc2c[nH]c3ccccc23)NC1=O; assay: as §1; format: functional, cell-based, Oocyte
[8] = substrate: CC1(C)SSC(C)(C)[C@@H](NC(=O)[C@@H](N)Cc2ccc(O)cc2)C(=O)NCC(=O)N[C@@H](Cc2ccccc2)C(=O)N[C@H]1C(=O)O; assay: as §1; format: functional, cell-based, Oocyte
[9] = substrate: C[C@]12CC[C@@H]3c4ccc(O)cc4CC[C@H]3[C@@H]1CC[C@@H]2O[C@@H]1O[C@H](C(=O)O)[C@@H](O)[C@H](O)[C@H]1O; assay: as §1; format: functional, cell-based, Oocyte
[10] = substrate: CCCCC[C@H](O)/C=C/[C@H]1[C@H](O)CC(=O)[C@@H]1C/C=C\CCCC(=O)O; assay: as §1; format: functional, cell-based, Oocyte
[11] = substrate: C[C@]12CC[C@@H]3c4ccc(OS(=O)(=O)O)cc4CC[C@H]3[C@@H]1CCC2=O; assay: as §1; format: functional, cell-based, Oocyte
[12] = substrate: O=C1OC(c2ccc(O)c(S(=O)(=O)O)c2)(c2ccc(O)c(S(=O)(=O)O)c2)c2c(Br)c(Br)c(Br)c(Br)c21; assay: as §1; format: functional, cell-based, Oocyte
[13] = substrate: CCCCC/C=C\C\C=C/C=C/C=C/[C@@H](SC[C@@H](NC(=O)CC[C@H](N)C(=O)O)C(=O)NCC(=O)O)[C@@H](O)CCCC(=O)O; assay: as §1; format: functional, cell-based, Oocyte

Molecule | Activity [2] | Activity [3] | Km [6] | Km [7] | Km [8] | Km [9] | Km [10] | Km [11] | also measured
C[C@@H]1O[C@@H](O[C@H]2C[C@@H](O)[C@]3(CO)[C@H]4[C@H](O)C[C@]5(C)[C@@H](C6=CC(=O)OC6)CC[C@]5(O)[C@@H]4CC[C@]3(O)C2)[C@H](O)[C@H](O)[C@H]1O [OUABAIN] | is not a substrate [-] | – | – | – | – | – | – | – | Km [1]: 1570 µM
C=CC[N+]1([C@H]2C[C@H]3[C@@H]4CC[C@H]5C[C@H](O)[C@@H](N6CCOCC6)C[C@]5(C)[C@H]4CC[C@]3(C)[C@H]2OC(C)=O)CCCC1 [ROCURONIUM] | is not a substrate [-] | substrate [+] | – | – | – | – | – | – | –
CC[N+](CC)(CC)CC [TETRYLAMMONIUM] | is not a substrate [-] | is not a substrate [-] | – | – | – | – | – | – | Activity [4]: is not a substrate [-]; Activity [5]: is not a substrate [-]
B1 | – | – | 162 µM | 417 µM | 137 µM | 39 µM | 35 µM | 268 µM | Km [12]: 8.3 µM
B2 | – | – | 5.3 µM | 13.8 µM | 22 µM | 32 µM | 13 µM | 37 µM | Km [13]: 6.5 µM
